The source of these data is publication PMC8870054.

This assay deals with CLOBY biosensor (His6-mClover3-spacer with TEV site-Src SH4, unique and SH3 domains-spacer-mRuby3). The experiment in a line: dynamic light scattering; hydrodynamic radius at variable concentrations up to 275 uM, 25 °C; apparent; dimer to monomers.

As to “CLOBY biosensor (His6-mClover3-spacer with TEV site-Src SH4, unique and SH3 domains-spacer-mRuby3)”, the Kd worked out at 700 µM.
